The test system of data set [1] is UT5600 cells (NTR−) lysogens. Nature of the data set: Replica-plate screening of mutant NTR-expressing lysogens on increasing CB1954 (growth score). Type of data set: cell-based, E. coli. The arrangement: key to Score: 0: Good growth on all concentrations of CB 1954 = vector; Good growth on 100 and 200, faint on 300, ring of growth on 400 μM; Good growth on 100 and 200, ring growth on 300, none or very faint on 400 μM; Good growth on 100, faint to good on 200, none or very faint on 300 and 400 μM; 4: Good growth on 100 μM, none to ring growth on 200 μM = wild type; Good growth on 50 μM, ring on 100 μM, none on 200, 300 or 400 μM; 6: Faint growth on 50 μM, ring on 100 μM; 7: Good growth on 50 μM, none on 100 μM; 8: Ring growth on 50 μM, none on 100 μM; 9: None or very faint growth on 50 μM, none on 100 μM; 10: None or ring growth on 35 μM. The following applies: growth of lysogens on agar with kanamycin, IPTG and 0-400 μM CB1954; wild type = 4, higher = more sensitive. As to the method: The ligation mix was packaged (Stratagene) into lambda bacteriophage particles that were used to infect UT5600 cells (NTR ^−). As a control wild type NTR was also cloned into this vector (JG16C2). Kanamycin resistant lysogens were selected on agar plates ([…] kanamycin) then individually grown overnight in a well of a 96-well plate in LB+Kanamycin. The clones were replica plated on to a series of plates containing Tris-buffered (50 mM, pH 7.5) LB agar with kanamycin, IPTG (0.1 mM) and CB1954 at a concentration of 0, 25, 35, 50, 100, 200, 300 or 400 μM (see FIG. 3). […]

The test system of data set [2] is UT5600 cells (NTR−) lysogens. Nature of the data set: Survival curve (colony count) IC50 of CB1954 in NTR-expressing lysogens. The class given is cell-based, E. coli. The following applies: concentration of CB1954 giving 50% reduction in colony number after 36h growth; lysogen expressing the named NTR. The protocol:
To quantify the improvement in NTR activity in the clones in a less subjective way, a few clones were selected for further study by determining their survival curves. The lysogens were grown overnight in LB +kanamycin and diluted to approximately 1 cell per μl based on the OD. In duplicate, 100 μl diluted cells were plated into Tris-buffered LB plates containing kanamycin, IPTG and 0-400 μM CB1954. After 36h growth the number of colonies on each plate were counted and expressed as a percentage of the number present on the plates with no CB1954. Survival curves showing % survival versus concentration of CB 1954 were plotted (see examples in FIG. 7) and the IC50 determined as the concentration of CB 1954 which kills gives a 50% reduction in colony number (Table 3 and FIG. 8). A few clones containing mutations resulting in an enhanced sensitivity to CB 1954 were selected for further study.

Data set [3] is described as follows: Steady state kinetics of purified NTR, variable substrate NADH. The class given is biochemical. The note with it: fixed substrate nitrofurazone. As to the method:
(§1) Wild type NTR and selected mutants were purified as described by Lovering et al., 2001. Steady state kinetic studies were carried out by monitoring the disappearance of nitrofurazone ( ? =12,960, Zenno, et al., 1994) and nitrofurantoin ( ? =12,020, McOsker, et al., 1992) at 420 nm or the disappearance of reduced benzoquinone ( ? =18,5000), 2-nitrofuran ( ? =10,250, McOsker, et al., 1992), 2-nitrobenzamide ( ? =9,750, McOsker, et al., 1992) and 4 nitrobenzamide ( ? =9,720, McOsker, et al., 1992) at 300 nm. The formation of the 4 hydroxylamine product of CB1954 reduction was monitored at 420 nm ( ? =7900, Richard Knox, personal communication).
(§2) All reactions were performed in quartz cuvettes with either a 0.1-, 0.5-, or 1-cm pathlength. In all cases the reaction was initiated by the addition of a small amount of cold enzyme solution to the reaction mix. Assays were performed in 10 mM Tris HCL pH 7.0. The temperature of each reaction was maintained at 25° C. by means of a circulating water bath. All substrates examined were dissolved in DMSO, with the final concentration of organic solvent not exceeding 4% (v/v), concentrations>5% (v/v) give definable enzyme inhibition. In all assay the final DMSO concentration was at 4%. All steady state data were collected in an aerobic environment. Kinetic data were collected at concentration ranges extending from 0.1 of Km to the maximum possible concentration permitted by substrate solubility or optical absorbance. In all cases maximum substrate concentrations exceeded 5×Km. All data was analysed using the commercial package Sigma Plot™ and fit with non-linear regression to a rectangular hyperbola of the form: y=ax/b+x

A short description of data set [4]: Steady state kinetics of purified NTR, variable substrate CB1954. Type of data set: biochemical. As to the method: as §1, §2
Data set [5] in a line: Steady state kinetics of purified NTR, variable substrate nitrofurazone. The class given is biochemical. The following applies: fixed substrate NADH. As to the method: as §1, §2
The mark [6] stands for this setting: variable substrate CB1954, fixed substrate NADH.

The text below walks through data of patent publication US20050013808A1, “Nitroreductase enzymes” (priority 2001, published 2005).

“And” between values parts separate entries of the source, which are not always exact repeats. Identical values can stand only once.

B1: T41L: NTR mutant, threonine 41 to leucine (protein)
chain: MDIISVALKRHSTKAFDASKKLTPEQAEQIKTLLQYSPSSLNSQPWHFIVASTEEGKARVAKSAAGNYVFNERKMLDASHVVVFCAKTAMDDVWLKLVVDQEDADGRFATPEAKAANDKGRKFFADMHRKDLHDDAEWMAKQVYLNVGNFLLGVAALGLDAVPIEGFDAAILDAEFGLKEKGYTSLVVVPVGHHSVEDFNATLPKSRLPQNITLTEV
Turning to B1, the Score in data set [1] is listed as 5-7. Moreover, 38 µM corresponded to half-maximal inhibition in data set [2] (IC50). Also, the turnover number (kcat) (usually the maximal rate divided by the concentration of active sites) in data set [3] stood at 35.18 ± 0.583 s⁻¹; in data set [4] (setting [6]), 16.2 ± 1.37 s⁻¹; in data set [5], 35.14 ± 0.612 s⁻¹. The Km (commonly the concentration of substrate that gives half-maximal velocity) in data set [3] (10 mM Tris HCl pH 7.0, 25° C., 4% DMSO) stood at 5 ± 2 µM; in data set [4] (setting [6]) it was 871 ± 77 µM; in data set [5], 79 ± 11 µM. Also, the “kinetic parameters compared with wild type” value in data set [4] (second substrate CB1954, nucleotide NADH) is given as “best bimolecular rate constant vs. the second substrate”.

B2: Y68G F124W (protein)
chain: MDIISVALKRHSTKAFDASKKLTPEQAEQIKTLLQYSPSSTNSQPWHFIVASTEEGKARVAKSAAGNGVFNERKMLDASHVVVFCAKTAMDDVWLKLVVDQEDADGRFATPEAKAANDKGRKFWADMHRKDLHDDAEWMAKQVYLNVGNFLLGVAALGLDAVPIEGFDAAILDAEFGLKEKGYTSLVVVPVGHHSVEDFNATLPKSRLPQNITLTEV
As to B2, in data set [1], the Score is on record as 5-7. The IC50 (as a rule, the concentration at which inhibition is half-maximal) in data set [2] is 69 µM.

B3: N71S (protein)
chain: MDIISVALKRHSTKAFDASKKLTPEQAEQIKTLLQYSPSSTNSQPWHFIVASTEEGKARVAKSAAGNYVFSERKMLDASHVVVFCAKTAMDDVWLKLVVDQEDADGRFATPEAKAANDKGRKFFADMHRKDLHDDAEWMAKQVYLNVGNFLLGVAALGLDAVPIEGFDAAILDAEFGLKEKGYTSLVVVPVGHHSVEDFNATLPKSRLPQNITLTEV
Regarding B3, the Score in data set [1] is 7. Besides, in data set [2], the IC50 stood at 55 µM.

B4: S40A (protein)
chain: MDIISVALKRHSTKAFDASKKLTPEQAEQIKTLLQYSPSATNSQPWHFIVASTEEGKARVAKSAAGNYVFNERKMLDASHVVVFCAKTAMDDVWLKLVVDQEDADGRFATPEAKAANDKGRKFFADMHRKDLHDDAEWMAKQVYLNVGNFLLGVAALGLDAVPIEGFDAAILDAEFGLKEKGYTSLVVVPVGHHSVEDFNATLPKSRLPQNITLTEV
On to B4, for which the Score in data set [1] is reported as 5-7. Besides, the concentration for half-maximal inhibition (IC50) in data set [2] was 100 µM and 84 µM.

B5: S40G (protein)
chain: MDIISVALKRHSTKAFDASKKLTPEQAEQIKTLLQYSPSGTNSQPWHFIVASTEEGKARVAKSAAGNYVFNERKMLDASHVVVFCAKTAMDDVWLKLVVDQEDADGRFATPEAKAANDKGRKFFADMHRKDLHDDAEWMAKQVYLNVGNFLLGVAALGLDAVPIEGFDAAILDAEFGLKEKGYTSLVVVPVGHHSVEDFNATLPKSRLPQNITLTEV
Consider B5, for which, in data set [1], the Score is reported as 5. Further, the half-inhibitory concentration (IC50) in data set [2] is 90 µM.

B6: G120S (protein)
chain: MDIISVALKRHSTKAFDASKKLTPEQAEQIKTLLQYSPSSTNSQPWHFIVASTEEGKARVAKSAAGNYVFNERKMLDASHVVVFCAKTAMDDVWLKLVVDQEDADGRFATPEAKAANDKSRKFFADMHRKDLHDDAEWMAKQVYLNVGNFLLGVAALGLDAVPIEGFDAAILDAEFGLKEKGYTSLVVVPVGHHSVEDFNATLPKSRLPQNITLTEV
With B6, in data set [1], the Score was 4-6. The molecule further came in with an IC50 in data set [2] of 125 µM.

B7: Y68W (protein)
chain: MDIISVALKRHSTKAFDASKKLTPEQAEQIKTLLQYSPSSTNSQPWHFIVASTEEGKARVAKSAAGNWVFNERKMLDASHVVVFCAKTAMDDVWLKLVVDQEDADGRFATPEAKAANDKGRKFFADMHRKDLHDDAEWMAKQVYLNVGNFLLGVAALGLDAVPIEGFDAAILDAEFGLKEKGYTSLVVVPVGHHSVEDFNATLPKSRLPQNITLTEV
B7: the Score in data set [1] was 4-5. In data set [2], the IC50 is 108 µM.

B8: N71D (protein)
chain: MDIISVALKRHSTKAFDASKKLTPEQAEQIKTLLQYSPSSTNSQPWHFIVASTEEGKARVAKSAAGNYVFDERKMLDASHVVVFCAKTAMDDVWLKLVVDQEDADGRFATPEAKAANDKGRKFFADMHRKDLHDDAEWMAKQVYLNVGNFLLGVAALGLDAVPIEGFDAAILDAEFGLKEKGYTSLVVVPVGHHSVEDFNATLPKSRLPQNITLTEV
B8 registered a Score in data set [1] of 5. The concentration for half-maximal inhibition (IC50) in data set [2] was found to be 110 µM.

B9: T41G (protein)
chain: MDIISVALKRHSTKAFDASKKLTPEQAEQIKTLLQYSPSSGNSQPWHFIVASTEEGKARVAKSAAGNYVFNERKMLDASHVVVFCAKTAMDDVWLKLVVDQEDADGRFATPEAKAANDKGRKFFADMHRKDLHDDAEWMAKQVYLNVGNFLLGVAALGLDAVPIEGFDAAILDAEFGLKEKGYTSLVVVPVGHHSVEDFNATLPKSRLPQNITLTEV
Regarding B9, in data set [1], the Score was 5-7. For the same molecule, in data set [2], half-maximal inhibition (IC50) required 120 µM.

B10: Y68G F124Q (protein)
chain: MDIISVALKRHSTKAFDASKKLTPEQAEQIKTLLQYSPSSTNSQPWHFIVASTEEGKARVAKSAAGNGVFNERKMLDASHVVVFCAKTAMDDVWLKLVVDQEDADGRFATPEAKAANDKGRKFQADMHRKDLHDDAEWMAKQVYLNVGNFLLGVAALGLDAVPIEGFDAAILDAEFGLKEKGYTSLVVVPVGHHSVEDFNATLPKSRLPQNITLTEV
B10 returned a Score in data set [1] of 4. The IC50 in data set [2] was 143 µM.

B11: S40T (protein)
chain: MDIISVALKRHSTKAFDASKKLTPEQAEQIKTLLQYSPSTTNSQPWHFIVASTEEGKARVAKSAAGNYVFNERKMLDASHVVVFCAKTAMDDVWLKLVVDQEDADGRFATPEAKAANDKGRKFFADMHRKDLHDDAEWMAKQVYLNVGNFLLGVAALGLDAVPIEGFDAAILDAEFGLKEKGYTSLVVVPVGHHSVEDFNATLPKSRLPQNITLTEV
The molecule B11 came in with a Score in data set [1] of 5. Moreover, the IC50 in data set [2] turned out to be 102 µM.

B12: G120A (protein)
chain: MDIISVALKRHSTKAFDASKKLTPEQAEQIKTLLQYSPSSTNSQPWHFIVASTEEGKARVAKSAAGNYVFNERKMLDASHVVVFCAKTAMDDVWLKLVVDQEDADGRFATPEAKAANDKARKFFADMHRKDLHDDAEWMAKQVYLNVGNFLLGVAALGLDAVPIEGFDAAILDAEFGLKEKGYTSLVVVPVGHHSVEDFNATLPKSRLPQNITLTEV
B12: the Score in data set [1] is given as 4-5. The same molecule showed a half-maximal inhibitory concentration (IC50) in data set [2] of 160 µM.
